Laboratory results: the RNAGym collection of RNA variant scans (doi:10.1093/molbev/msab373)

B1: Azoarcus group I ribozyme (parent)
chain: GUGCCUUGCGCCGGGAAACCACGCAAGGGAUGGUGUCAAAUUCGGCGAAACCUAAGCGCCCGCCCGGGCGUAUGGCAACGCCGAGCCAAGCUUCGGCGCCUGCGCCGAUGAAGGUGUAGAGACUAGACGGCACCCACCUAAGGCAAACGCUAUGGUGAAGGCAUAGUCCAGGGAGUGGCGAAAGUCACACAAACCGG

Variants of: B1
Assay: reverse-splicing fitness (ratio to wild type); higher = more active; in vitro selection; Mg2+ level not given
In short: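 An in vitro group I ribozyme library with randomized positions was T7-transcribed and gel-purified. In triplicate, 10 pmol RNA in EPPS pH 7.5 was reacted with 50 pmoles of a 30-nt RNA substrate for 1 h at 37 °C across several added MgCl2 levels (1–48 mM), then stopped with EDTA. Products were reverse transcribed from a substrate-complementary primer, PCR-amplified and sequenced (HiSeq 4000). Fitness is a variant's read proportion after selection over that before, normalised to wild type.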

Variant	reverse-splicing fitness
C82G A111G A120G A145C C169A U176A	0.0165
C82G A111G A120G A145C C169A U176C	0.0114
C82G A111G A120G A145C C169A U176G	0.00415
C82G A111G A120C A145U C150A C169G U176A	0.0168
C82G A111G A120C A145U C150A C169G U176G	0.00622
C82G A111G A120C A145U C150A C169G U176C	0.0209
C82G A111G A120C C150G	0.0105
C82G A111G A120C C150A	0.0154
C82G A111G A120C C150U	0.0417
C82G A111G A120C A145G C150G U176C	0.011
C82G A111G A120C A145G C150G U176A	0.00724
C82G A111G A120C A145G C150G U176G	0.0057
C82G A111G A120C A145C C169U	0.0144
C82G A111G A120C A145C C169G	0.00871
C82G A111G A120C C150A C169U U176A	0.0165
C82G A111G A120C C150A C169U U176G	0.00877
C82G A111G A120C C150A C169U U176C	0.0175
C82G A111G A120G A145G C169A	0.0141
C82G A111G A120G A145G C169G	0.0197
C82G A111G A120G A145G C169U	0.0134
C82G A111G A120C A145G C150U C169A	0.0104

Variant	reverse-splicing fitness
C82G A111G A120C A145G C150U C169G	0.00893
C82G A111G A120C A145G C150U C169U	0.016
C82G A111G A120C C150G C169A U176A	0.0102
C82G A111G A120C C150G C169A U176C	0.016
C82G A111G A120C C150G C169A U176G	0.00813
C82G A111G A120G A145C C150U C169G U176G	0.00557
C82G A111G A120G A145C C150U C169G U176A	0.022
C82G A111G A120G A145C C150U C169G U176C	0.0155
C82G A111G A120G A145G U176C	0.0204
C82G A111G A120G A145G U176G	0.00696
C82G A111G A120G A145G U176A	0.0129
C82G A111G A120G A145C C150A C169U	0.0075
C82G A111G A120G A145C C150A C169G	0.00843
C82G A111G A120G A145C C150A C169A	0.00854
C82G A111G A120G A145C C150U	0.00975
C82G A111G A120G A145C C150G	0.00711
C82G A111G A120G A145C C150A	0.00699
C82G A111G A120C A145G C150G C169U U176G	0.00784
C82G A111G A120C A145G C150G C169U U176C	0.0142
C82G A111G A120C A145G C150G C169U U176A	0.0118
C82G A111G A120C C150A C169A U176G	0.00841

Variant	reverse-splicing fitness
C82G A111G A120C C150A C169A U176A	0.0223
C82G A111G A120C C150A C169A U176C	0.0204
C82G A111G A120C A145U C150U C169G U176C	0.0179
C82G A111G A120C A145U C150U C169G U176A	0.0171
C82G A111G A120C A145U C150U C169G U176G	0.00596
C82G A111G A120C C150G C169G	0.008
C82G A111G A120C C150G C169A	0.00976
C82G A111G A120C C150G C169U	0.0104
C82G A111G A120C A145G C169U	0.015
C82G A111G A120C A145G C169G	0.0079
C82G A111G A120C A145G C169A	0.00771
C82G A111G A120G A145C C150G U176G	0.00368
C82G A111G A120G A145C C150G U176A	0.0082
C82G A111G A120G A145C C150G U176C	0.0133
C82G A111G A120C A145U C150A	0.0142
C82G A111G A120C A145U C150U	0.0494
C82G A111G A120C A145U C150G	0.0127
C82G A111G A120G A145C C150A C169G U176A	0.0249
C82G A111G A120G A145C C150A C169G U176C	0.0187
C82G A111G A120G A145C C150A C169G U176G	0.00603
C82G A111G A120G A145C U176C	0.0181

Variant	reverse-splicing fitness
C82G A111G A120G A145C U176A	0.0154
C82G A111G A120G A145C U176G	0.0063
C82G A111G A120G A145G C150G C169A U176A	0.0146
C82G A111G A120G A145G C150G C169A U176G	0.00881
C82G A111G A120G A145G C150G C169A U176C	0.0138
C82G A111G A120C A145U U176G	0.00776
C82G A111G A120C A145U U176C	0.0434
C82G A111G A120C A145U U176A	0.0294
C82G A111G A120G A145G C169G U176C	0.0248
C82G A111G A120G A145G C169G U176G	0.0045
C82G A111G A120G A145G C169G U176A	0.0184
C82G A111G A120C C150A U176C	0.0277
C82G A111G A120C C150A U176G	0.0141
C82G A111G A120C C150A U176A	0.014
C82G A111G A120C A145U C169U U176C	0.0124
C82G A111G A120C A145U C169U U176A	0.0129
C82G A111G A120C A145U C169U U176G	0.00484
C82G A111G A120C C150U U176G	0.0127
C82G A111G A120C C150U U176C	0.0344
C82G A111G A120C C150U U176A	0.0201
C82G A111G A120G A145U C150A	0.00906
